Tests used:
[1] = biological target: T1, catalytic domain of MMP-14 (cdMMP-14) (human, UniProt P50281 114-287, limits assumed, biotinylated (Sulfo-NHS-LC-Biotin) where immobilised via streptavidin); test: cell-based or functional assay
[2] = biological target: T1, catalytic domain of MMP-14 (cdMMP-14); test: ELISA, Fab titrated on immobilised biotin-cdMMP-14, anti-Fab-HRP
[3] = biological target: T1, catalytic domain of MMP-14 (cdMMP-14); test: ELISA, Fab titrated on immobilised MMP-14 catalytic domain, anti-Fab-HRP
Protocol: Bound Fabs were detected using the anti-Fab-HRP conjugate. The half-maximal effective concentration (EC₅₀) was calculated from a four-parametric logistic curve-fitting analysis.

Row | Inhibition potency (FRET IC50) [1] | EC50 [2] | EC50 [3] | Binder
1 | 0.6 µM | 0.75 µM |  | Fab R2C11 (Fab, V domains shown) VH: EVQLVESGGGLVQPGGSLRLSCAASGFNLYYSSIHWVRQAPGKGLEWVAYIYPSYSYTYYADSVKGRFTISADTSKNTAYLQMNSLRAEDTAVYYCARRYGSDVFCVGCFFGVRLSYVMDYWGQGTLVTVSS VL: DIQMTQSPSSLSASVGDRVTITCRASQSVSSAVAWYQQKPGKAPKLLIYSASSLYSGVPSRFSGSRSGTDFTLTISSLQPEDFATYYCQQYVSSGSLITFGQGTKVEIKR
2 | 5.4 µM | 1.3 µM |  | Fab R3C8 (Fab, V domains shown) VH: EVQLVESGGGLVQPGGSLRLSCAASGFNFSSSSIHWVRQAPGKGLEWVASIYPSYSYTYYADSVKGRFTISADTSKNTAYLQMNSLRAEDTAVYYCARHCLLRSRRCEMSTKTRELNVYRYAMDYWGQGTLVTVSS VL: DIQMTQSPSSLSASVGDRVTITCRASQSVSSAVAWYQQKPGKAPKLLIYSASSLYSGVPSRFSGSRSGTDFTLTISSLQPEDFATYYCQQWPVGSSYPITFGQGTKVEIKR
3 |  | 0.59 µM | 0.59 µM | Fab 3B2 (Fab, V domains shown, also called R2C1; not shown: His tag at the C-terminus of the heavy chain) VH: EVQLVESGGGLVQPGGSLRLSCAASGFNFSSSSIHWVRQAPGKGLEWVASIYSSYSSTYYADSVKGRFTISADTSKNTAYLQMNSLRAEDTAVYYCARSTAATTLSRMSRSYWTIQLPYGMDYWGQGTLVTVSS VL: DIQMTQSPSSLSASVGDRVTITCRASQSVSSAVAWYQQKPGKAPKLLIYSASSLYSGVPSRFSGSRSGTDFTLTISSLQPEDFATYYCQQSSYSLITFGQGTKVEIKR
4 | 0.15 µM | 0.15 µM |  | Fab R2C12 (Fab, V domains shown) VH: EVQLVESGGGLVQPGGSLRLSCAASGFNISSSYMHWVRQAPGKGLEWVASIYSYSSYTYYADSVKGRFTISADTSKNTAYLQMNSLRAEDTAVYYCARSDSWVQGRDFCYYSAWVGYGMDYWGQGTLVTVSS VL: DIQMTQSPSSLSASVGDRVTITCRASQSVSSAVAWYQQKPGKAPKLLIYSASSLYSGVPSRFSGSRSGTDFTLTISSLQPEDFATYYCQQGYYALFTFGQGTKVEIKR
5 | 1 µM | 0.97 µM |  | Fab R3C10 (Fab, V domains shown) VH: EVQLVESGGGLVQPGGSLRLSCAASGFNIYYSSMHWVRQAPGKGLEWVASISPYYGYTYYADSVKGRFTISADTSKNTAYLQMNSLRAEDTAVYYCARGSLRRDFNLVVRSSWDIRSNYVMDYWGQGTLVTVSS VL: DIQMTQSPSSLSASVGDRVTITCRASQSVSSAVAWYQQKPGKAPKLLIYSASSLYSGVPSRFSGSRSGTDFTLTISSLQPEDFATYYCQQSWPYPITFGQGTKVEIKR
6 | 0.08 µM | 0.657 µM |  | Fab R2C9 (Fab, V domains shown) VH: EVQLVESGGGLVQPGGSLRLSCAASGFNIYSYSMHWVRQAPGKGLEWVAYIYPYSGYTYYADSVKGRFTISADTSKNTAYLQMNSLRAEDTAVYYCARVLNIFMDVGAARFPGLVRYGMDYWGQGTLVTVSS VL: DIQMTQSPSSLSASVGDRVTITCRAGQDVSSAVAWYQQKPGKAPKLLIYSASTLHSGVPSRFSGSRSGTDFTLTISSLQPEDFATYYCQQSGPYSLFTFGQGTKVEIKR
7 |  |  | 0.84 µM | Fab 2E4 (Fab, V domains shown, not shown: His tag at the C-terminus of the heavy chain) VH: EVQLVESGGGLVQPGGSLRLSCAASGFNLSYSYIHWVRQAPGKGLEWVAYISSSSGYTYYADSVKGRFTISADTSKNTAYLQMNSLRAEDTAVYYCARSARLRLRGNHDRRRSKSVYYRPYVMDYWGQGTLVTVSS VL: DIQMTQSPSSLSASVGDRVTITCRASQSVSSAVAWYQQKPGKAPKLLIYSASSLYSGVPSRFSGSRSGTDFTLTISSLQPEDFATYYCQQSSPSFPITFGQGTKVEIKR
8 | 0.17 µM | 0.0575 µM |  | Fab R3C15 (Fab, V domains shown) VH: EVQLVESGGGLVQPGGSLRLSCAASGFNISYSYMHWVRQAPGKGLEWVASISPYSGYTYYADSVKGRFTISADTSKNTAYLQMNSLRAEDTAVYYCARGVRGNKLRLLSSRSGRMESHYVMDYWGQGTLVTVSS VL: DIQMTQSPSSLSASVGDRVTITCRASQSVSSAVAWYQQKPGKAPKLLIYSASSLYSGVPSRFSGSRSGTDFTLTISSLQPEDFATYYCQQAGSLFTFGQGTKVEIKR

Further lines, the binder ahead of its results:

Row | Binder | Inhibition potency (FRET IC50) [1] | EC50 [2] | EC50 [3]
9 | Fab R2C8 (Fab, V domains shown) VH: EVQLVESGGGLVQPGGSLRLSCAASGFNISSSSIHWVRQAPGKGLEWVASIYPYYGSTSYADSVKGRFTISADTSKNTAYLQMNSLRAEDTAVYYCARPGRHLQTTFKGYQFKYSRYIYAMDYWGQGTLVTVSS VL: DIQMTQSPSSLSASVGDRVTITCRASQSVSSAVAWYQQKPGKAPKLLIYSASSLYSGVPSRFSGSRSGTDFTLTISSLQPEDFATYYCQQWGHHGYLITFGQGTKVEIKR | 1.2 µM | 1.2 µM | 
10 | Fab 32E10 (Fab, V domains shown, also called R2C19; not shown: His tag at the C-terminus of the heavy chain) VH: EVQLVESGGGLVQPGGSLRLSCAASGFNIYSYSMHWVRQAPGKGLEWVAYIYPYSGYTYYADSVKGRFTISADTSKNTAYLQMNSLRAEDTAVYYCARLDRDRYIHVGRAGNTYSNYYYVMDYWGQGTLVTVSS VL: DIQMTQSPSSLSASVGDRVTITCRASQSVSSAVAWYQQKPGKAPKLLIYSASSLYSGVPSRFSGSRSGTDFTLTISSLQPEDFATYYCQQPWGAASLITFGQGTKVEIKR |  | 0.0097 µM | 0.0097 µM
11 | Fab R3C13 (Fab, V domains shown) VH: EVQLVESGGGLVQPGGSLRLSCAASGFNIYYSYMHWVRQAPGKGLEWVASISSYSGSTSYADSVKGRFTISADTSKNTAYLQMNSLRAEDTAVYYCARWLRVSLKSGVYKVLARAVELDEYVMDYWGQGTLVTVSS VL: DIQMTQSPSSLSASVGDRVTITCRASQSVSSAVAWYQQKPGKAPKLLIYSASSLYSGVPSRFSGSRSGTDFTLTISSLQPEDFATYYCQQSGYYAWPITFGQGTKVEIKR | 2 µM | 2 µM | 
12 | Fab R2C22 (Fab, V domains shown) VH: EVQLVESGGGLVQPGGSLRLSCAASGFNIYSSYMHWVRQAPGKGLEWVASIYSSYGSTYYADSVKGRFTISADTSKNTAYLQMNSLRAEDTAVYYCARHSRDGWQHWFGNWAGLHSYGMDYWGQGTLVTVSS VL: DIQMTQSPSSLSASVGDRVTITCRASQSVSSAVAWYQQKPGKAPKLLIYSASSLYSGVPSRFSGSRSGTDFTLTISSLQPEDFATYYCQQYYHYGYYLITFGQGTKVEIKR | 0.075 µM | 0.54 µM | 
13 | Fab R2C6 (Fab, V domains shown) VH: EVQLVESGGGLVQPGGSLRLSCAASGFNIYYSSMHWVRQAPGKGLEWVAYISPYYGYTSYADSVKGRFTISADTSKNTAYLQMNSLRAEDTAVYYCARKDLLKTNRLTTRYKKSVSVGYGMDYWGQGTLVTVSS VL: DIQMTQSPSSLSASVGDRVTITCRASQSVSSAVAWYQQKPGKAPKLLIYSASSLYSGVPSRFSGSRSGTDFTLTISSLQPEDFATYYCQQYVYPPFTFGQGTKVEIKR | 2.4 µM | 2.4 µM | 
14 | Fab 33F5 (Fab, V domains shown, also called R2C20; not shown: His tag at the C-terminus of the heavy chain) VH: EVQLVESGGGLVQPGGSLRLSCAASGFNLYYSYMHWVRQAPGKGLEWVAYISPSSSSTYYADSVKGRFTISADTSKNTAYLQMNSLRAEDTAVYYCARNFRVESAGRPGKTVLRKDGKYAMDYWGQGTLVTVSS VL: DIQMTQSPSSLSASVGDRVTITCRASQSVSSAVAWYQQKPGKAPKLLIYSASSLYSGVPSRFSGSRSGTDFTLTISSLQPEDFATYYCQQSSVGLFTFGQGTKVEIKR |  | 1.6 µM | 1.6 µM
15 | Fab 32C11 (Fab, V domains shown, also called R3C7; not shown: His tag at the C-terminus of the heavy chain) VH: EVQLVESGGGLVQPGGSLRLSCAASGFNLYYSSIHWVRQAPGKGLEWVASISSYSSYTYYADSVKGRFTISADTSKNTAYLQMNSLRAEDTAVYYCAREIHMLSRQARYLRDGRRPRGSMYVMDYWGQGTLVTVSS VL: DIQMTQSPSSLSASVGDRVTITCRASQSVSSAVAWYQQKPGKAPKLLIYSASSLYSGVPSRFSGSRSGTDFTLTISSLQPEDFATYYCQQYGAGLITFGQGTKVEIKR |  | 0.029 µM | 0.029 µM
16 | Fab 2H9 (Fab, V domains shown, not shown: His tag at the C-terminus of the heavy chain) VH: EVQLVESGGGLVQPGGSLRLSCAASGFNIYYSSMHWVRQAPGKGLEWVASIYPYSGYTYYADSVKGRFTISADTSKNTAYLQMNSLRAEDTAVYYCARGTSFQVRCVLYRLLSPGRYVMDYWGQGTLVTVSS VL: DIQMTQSPSSLSASVGDRVTITCRASQSVSSAVAWYQQKPGKAPKLLIYSASSLYSGVPSRFSGSRSGTDFTLTISSLQPEDFATYYCQQSGYSYPFTFGQGTKVEIKR |  |  | 0.12 µM
17 | Fab R2C4 (Fab, V domains shown) VH: EVQLVESGGGLVQPGGSLRLSCAASGFNLSYYYMHWVRQAPGKGLEWVAYISSYSGYTYYADSVKGRFTISADTSKNTAYLQMNSLRAEDTAVYYCARGWRVYADRGHVRGYFRVWYGMDYWGQGTLVTVSS VL: DIQMTQSPSSLSASVGDRVTITCRASQSVSSAVAWYQQKPGKAPKLLIYSASSLYSGVPSRFSGSRSGTDFTLTISSLQPEDFATYYCQQGAGLITFGQGTKVEIKR | 1.5 µM | 10 µM | 
18 | Fab R2C16 (Fab, V domains shown) VH: EVQLVESGGGLVQPGGSLRLSCAASGFNIYSYSMHWVRQAPGKGLEWVASISSYYGYTYYADSVKGRFTISADTSKNTAYLQMNSLRAEDTAVYYCARFKNADFAAGGQWSKMLIARMYAMDYWGQGTLVTVSS VL: DIQMTQSPSSLSASVGDRVTITCRASQSVSSAVAWYQQKPGKAPKLLIYSASSLYSGVPSRFSGSRSGTDFTLTISSLQPEDFATYYCQQYYSLITFGQGTKVEIKR | 5.5 µM | 1.8 µM | 

Reference: patent US20190185581A1 (University of California, published 2019)
